Data taken from patent publication US20210322547A1.

Experiments:
[1] = target: Recombinant human GM-CSF (expression source not stated) (human) (UniProt P04141); assay: competition ELISA; plate coated with 50 ng/well recombinant GM-CSF; unlabeled antibody titrated together with 50 nM biotinylated Ab2; competition for 18 hrs; neutravidin-HRP detection, A450
[2] = target: Recombinant human GM-CSF (expression source not stated) (human) (UniProt P04141); assay: competition ELISA; plate coated with 50 ng/well recombinant GM-CSF; unlabeled antibody titrated together with 50 nM biotinylated Ab2; competition for 1 hr; neutravidin-HRP detection, A450

Sequence of UniProt P04141 (P04141 18-144 limits assumed): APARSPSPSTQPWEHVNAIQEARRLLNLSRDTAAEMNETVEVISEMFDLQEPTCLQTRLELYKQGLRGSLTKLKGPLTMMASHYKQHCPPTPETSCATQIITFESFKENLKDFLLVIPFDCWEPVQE

IC50 [1]: 94 nM | IC50 [2]: 122 nM
Substance: Ab2, chimeric IgG1k antibody having variable regions from the mouse antibody LMM102
